Test results published in article PMC2133180.

Target: perlecan purified from Englebreth-Holm-Swarm tumor (UniProt Q05793)
Test: SPR

UniProt Q05793, sequence (Q05793 22-3707): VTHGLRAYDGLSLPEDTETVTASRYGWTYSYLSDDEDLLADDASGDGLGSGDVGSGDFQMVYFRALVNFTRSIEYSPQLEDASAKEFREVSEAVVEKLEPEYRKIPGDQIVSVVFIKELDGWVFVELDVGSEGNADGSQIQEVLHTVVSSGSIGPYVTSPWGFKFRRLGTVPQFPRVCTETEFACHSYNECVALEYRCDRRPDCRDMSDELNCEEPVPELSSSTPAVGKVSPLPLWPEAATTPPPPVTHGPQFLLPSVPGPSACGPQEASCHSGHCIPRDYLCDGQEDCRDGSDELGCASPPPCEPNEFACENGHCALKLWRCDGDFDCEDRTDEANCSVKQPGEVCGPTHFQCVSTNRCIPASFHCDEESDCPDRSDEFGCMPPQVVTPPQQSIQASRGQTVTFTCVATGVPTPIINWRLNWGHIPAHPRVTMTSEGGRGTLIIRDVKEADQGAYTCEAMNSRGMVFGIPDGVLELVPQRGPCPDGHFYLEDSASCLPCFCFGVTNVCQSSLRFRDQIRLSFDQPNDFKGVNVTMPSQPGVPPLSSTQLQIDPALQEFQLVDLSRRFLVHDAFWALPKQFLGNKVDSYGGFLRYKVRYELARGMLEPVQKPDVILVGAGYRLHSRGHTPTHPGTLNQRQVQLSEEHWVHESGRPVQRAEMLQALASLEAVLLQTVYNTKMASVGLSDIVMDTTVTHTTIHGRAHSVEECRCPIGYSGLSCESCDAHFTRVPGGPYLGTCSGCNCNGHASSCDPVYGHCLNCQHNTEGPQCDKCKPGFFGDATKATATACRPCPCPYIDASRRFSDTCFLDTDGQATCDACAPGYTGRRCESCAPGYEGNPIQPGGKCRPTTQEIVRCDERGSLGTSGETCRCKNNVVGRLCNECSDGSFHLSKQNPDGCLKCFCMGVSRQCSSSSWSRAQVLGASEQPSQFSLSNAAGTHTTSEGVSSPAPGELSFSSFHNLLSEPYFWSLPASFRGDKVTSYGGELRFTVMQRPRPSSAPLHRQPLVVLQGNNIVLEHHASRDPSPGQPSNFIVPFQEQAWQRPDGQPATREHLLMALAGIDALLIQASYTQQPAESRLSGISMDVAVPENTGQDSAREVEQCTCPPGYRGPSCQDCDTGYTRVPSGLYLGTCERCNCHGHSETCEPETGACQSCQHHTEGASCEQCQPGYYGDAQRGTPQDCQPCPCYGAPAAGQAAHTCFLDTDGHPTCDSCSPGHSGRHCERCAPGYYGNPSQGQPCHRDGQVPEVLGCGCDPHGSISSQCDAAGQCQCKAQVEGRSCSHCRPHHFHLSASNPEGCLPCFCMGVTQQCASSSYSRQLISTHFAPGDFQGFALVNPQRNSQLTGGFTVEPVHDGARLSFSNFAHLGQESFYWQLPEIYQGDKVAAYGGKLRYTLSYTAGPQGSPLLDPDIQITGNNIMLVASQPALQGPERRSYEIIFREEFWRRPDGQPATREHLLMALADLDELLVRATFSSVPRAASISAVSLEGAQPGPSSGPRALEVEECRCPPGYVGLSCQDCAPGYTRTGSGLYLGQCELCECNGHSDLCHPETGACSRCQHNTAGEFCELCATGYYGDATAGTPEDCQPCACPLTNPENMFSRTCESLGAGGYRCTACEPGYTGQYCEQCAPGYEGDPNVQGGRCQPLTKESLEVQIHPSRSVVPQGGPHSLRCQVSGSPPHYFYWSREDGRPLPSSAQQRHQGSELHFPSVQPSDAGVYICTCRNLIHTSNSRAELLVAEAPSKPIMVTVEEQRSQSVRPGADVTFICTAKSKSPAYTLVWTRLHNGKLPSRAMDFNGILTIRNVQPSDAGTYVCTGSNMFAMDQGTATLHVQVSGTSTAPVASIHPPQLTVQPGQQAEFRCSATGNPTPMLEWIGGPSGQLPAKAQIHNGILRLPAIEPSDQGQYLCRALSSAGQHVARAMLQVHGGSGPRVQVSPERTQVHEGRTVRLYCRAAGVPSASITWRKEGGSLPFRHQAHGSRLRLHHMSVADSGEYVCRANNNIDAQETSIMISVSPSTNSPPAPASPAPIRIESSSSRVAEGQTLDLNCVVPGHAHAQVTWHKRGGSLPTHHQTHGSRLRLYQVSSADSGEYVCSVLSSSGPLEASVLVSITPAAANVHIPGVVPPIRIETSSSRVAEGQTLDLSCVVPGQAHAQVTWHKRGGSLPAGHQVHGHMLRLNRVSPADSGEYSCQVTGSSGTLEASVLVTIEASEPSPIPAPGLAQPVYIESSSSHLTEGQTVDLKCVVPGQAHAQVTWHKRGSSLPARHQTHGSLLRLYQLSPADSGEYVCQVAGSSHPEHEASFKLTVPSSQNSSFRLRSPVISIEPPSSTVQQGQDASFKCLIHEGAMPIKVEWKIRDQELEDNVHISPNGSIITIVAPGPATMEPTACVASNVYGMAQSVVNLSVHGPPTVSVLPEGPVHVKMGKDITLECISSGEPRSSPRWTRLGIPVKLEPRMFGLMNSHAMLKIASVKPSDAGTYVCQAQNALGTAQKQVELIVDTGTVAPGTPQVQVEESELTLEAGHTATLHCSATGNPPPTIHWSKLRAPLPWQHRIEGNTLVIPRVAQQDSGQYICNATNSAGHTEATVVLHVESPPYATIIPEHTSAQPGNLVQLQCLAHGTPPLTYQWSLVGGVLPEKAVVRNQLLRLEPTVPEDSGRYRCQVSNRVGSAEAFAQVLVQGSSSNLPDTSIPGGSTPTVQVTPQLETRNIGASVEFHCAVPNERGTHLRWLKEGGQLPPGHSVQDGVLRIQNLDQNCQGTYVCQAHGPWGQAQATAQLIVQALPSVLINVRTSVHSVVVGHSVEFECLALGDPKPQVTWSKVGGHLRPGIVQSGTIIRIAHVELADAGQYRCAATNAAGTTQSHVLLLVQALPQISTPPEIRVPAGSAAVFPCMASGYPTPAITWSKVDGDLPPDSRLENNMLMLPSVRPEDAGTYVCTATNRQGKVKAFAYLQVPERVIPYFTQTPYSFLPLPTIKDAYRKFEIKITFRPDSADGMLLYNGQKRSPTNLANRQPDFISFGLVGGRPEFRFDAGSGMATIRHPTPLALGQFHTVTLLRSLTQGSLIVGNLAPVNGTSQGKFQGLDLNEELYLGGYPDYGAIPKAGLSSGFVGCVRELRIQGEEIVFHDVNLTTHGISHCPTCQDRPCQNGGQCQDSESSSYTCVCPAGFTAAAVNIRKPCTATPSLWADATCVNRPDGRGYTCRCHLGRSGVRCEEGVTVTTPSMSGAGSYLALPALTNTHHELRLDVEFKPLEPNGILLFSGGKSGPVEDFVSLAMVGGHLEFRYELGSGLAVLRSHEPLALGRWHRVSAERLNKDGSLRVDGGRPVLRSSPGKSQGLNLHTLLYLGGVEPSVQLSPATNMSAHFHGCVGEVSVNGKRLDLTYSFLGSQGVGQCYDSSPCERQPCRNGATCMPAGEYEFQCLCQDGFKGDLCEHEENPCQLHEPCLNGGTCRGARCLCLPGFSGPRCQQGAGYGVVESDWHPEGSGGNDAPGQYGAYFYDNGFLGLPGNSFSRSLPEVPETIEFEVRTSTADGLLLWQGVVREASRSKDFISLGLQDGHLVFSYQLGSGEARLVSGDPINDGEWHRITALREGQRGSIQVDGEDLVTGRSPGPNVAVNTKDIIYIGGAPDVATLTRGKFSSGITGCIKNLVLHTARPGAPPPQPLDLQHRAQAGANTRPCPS

How did the fold change in RU over the G2/G4 value turn out when “quail A12 collagenic-tailed acetylcholinesterase (asymmetric form) (complex)” was run?
Its fold change in RU over the G2/G4 value is 270 fold.
